Article doi:10.1101/2024.10.10.617623, “Deep mutational scanning identifies variants of Cas1 and Cas2 that increase spacer acquisition in type II-A CRISPR-Cas systems” (bioRxiv, 2024)

Key:
[1] = target: T1, Streptococcus pyogenes type II-A Cas1 (wild type) (Streptococcus pyogenes, UniProt Q99ZW1 1-289); experiment: SEC; analytical SEC on Superdex 200 Increase 10/300 GL in SEC buffer (20 mM HEPES pH 7.5, 500 mM NaCl, 5% v/v glycerol, 5 mM DTT) at 4 °C; Cas1 variant 15.0 uM (2 equiv.) mixed with Cas2 7.5 uM, incubated 1 h at 4 °C before injection; fractions on SDS-PAGE, Coomassie; details: both partners purified
T1 construct: Cas1 of the Streptococcus pyogenes (SF370) type II-A CRISPR-Cas system; I surmise that one is the wild type; also called wt; source: E. coli Rosetta 2(DE3) BL21, purified (Ni-NTA, SUMO protease, HiTrap Heparin, Superdex 200)
T1 sequence (looked up): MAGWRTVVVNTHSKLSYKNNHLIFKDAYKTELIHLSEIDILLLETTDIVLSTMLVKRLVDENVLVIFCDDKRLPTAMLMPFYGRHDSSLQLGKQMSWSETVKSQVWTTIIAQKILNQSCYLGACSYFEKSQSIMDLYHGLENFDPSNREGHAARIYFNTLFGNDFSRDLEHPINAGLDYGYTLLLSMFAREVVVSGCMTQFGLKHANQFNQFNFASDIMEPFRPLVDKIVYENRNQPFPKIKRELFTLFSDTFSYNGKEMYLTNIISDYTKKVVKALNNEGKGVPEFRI

[2] = target: T2, Streptococcus pyogenes type II-A Cas1 R5A (Streptococcus pyogenes, UniProt Q99ZW1 1-289, R5A); experiment: as above; details: both partners purified
T2 construct: Cas1 of the Streptococcus pyogenes (SF370) type II-A CRISPR-Cas system with R5A; source: E. coli Rosetta 2(DE3) BL21, purified (Ni-NTA, SUMO protease, HiTrap Heparin, Superdex 200)
T2 sequence (looked up): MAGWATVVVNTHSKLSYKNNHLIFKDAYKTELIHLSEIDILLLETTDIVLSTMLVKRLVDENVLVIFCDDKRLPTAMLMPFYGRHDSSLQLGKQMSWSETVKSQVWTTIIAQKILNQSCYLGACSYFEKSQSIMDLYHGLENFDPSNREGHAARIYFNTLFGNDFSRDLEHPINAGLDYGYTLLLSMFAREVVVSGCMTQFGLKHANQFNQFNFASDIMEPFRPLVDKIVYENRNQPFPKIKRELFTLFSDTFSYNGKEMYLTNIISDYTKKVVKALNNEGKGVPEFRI

binding result [1]: binds
binding result [2]: binds
B1: Streptococcus pyogenes type II-A Cas2 (natural protein, UniProt Q99ZW0 1-113, looked up)
chain: MSYRYMRMILMFDMPTDTAEERKAYRKFRKFLLSEGFIMHQFSIYSKLLLNNTANNAMIGRLREHNPNKGNITLLTVTEKQFARMIYLHGERNNCIANSDERLVFLGEAFDES
notes: Cas2 of the Streptococcus pyogenes (SF370) type II-A CRISPR-Cas system; source: E. coli Rosetta 2(DE3) BL21, purified (Ni-NTA, SUMO protease, HiTrap Heparin, Superdex 200)
